Experimental data published in the supplement of paper PMC7877785.
± gives the uncertainty stated by the source.

Experiment: self-splicing fitness, log relative to wild type (ln ratio); higher = more splicing; Tetrahymena group I intron in knt gene, E. coli kanamycin selection, DiMSum; sequences stand for … in CUCUCU…GGAGGGAAAAGUUAUCAGGCAUGCACCUGGUAGCUAGUCUUUAAACCAAUAGAUUGCAUCGGUUUAAAAGGCAAGACCGUCAAAUUGCGGGAAAGGGGUCAACAGCCGUUCAGUACCAAGUCUCAGGGGAAACUUUGAGAUGGCCUUGCAAAGGGUAUGGUAAUAAGCUGACGGACAUGGUCCUAACCACGCAGCCAAGUCCUAAGUCAACAGAUCUUCUGUUGAUAUGGAUGCAGUUCACAGACUAAAUGUCGGUCGGGGAAGAUGUAUUCUUCUCAUAAGAUAUAGUCGGACCUCUCCUUAAUGGGAGCUAGCGGAUGAAGUGAUGCAACACUGGAGCCGCUGGGAACUAAUUUGUAUGCGAAAGUAUAUUGAUUAGUUUUGGAGUACUCGUGGUCG
Procedure, shortened: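 A randomised library covering all eight P1ex-region intron nucleotides was built with the intron in the knt kanamycin-resistance gene on pET-22b(+) and held in E. coli BL21(DE3). Cells were grown overnight at 37°C or 30°C on LB agar, with or without 25 μg/mL kanamycin, plus 100 μg/mL carbenicillin, 50 μM IPTG and 0.2% rhamnose, and pooled colonies were amplicon-sequenced on an Illumina HiSeq 2500. DiMSum fitness is the error-weighted combination of wild-type-normalised replicate fold changes, kanamycin versus none.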

| Sequence | self-splicing fitness (ln) (30 °C) | self-splicing fitness (ln) (37 °C) |
| --- | --- | --- |
| CAUAAGCAAUAUUACGCCCA | -2.14 ± 0.21 | -1.35 ± 0.29 |
| CAUAAGCAAUAUUACGCCCU | -2.76 ± 0.43 | -2.4 ± 0.49 |
| CAUAAGCAAUAUUACGGCCC | -3.92 ± 0.4 | – |
| CAUAAGCAAUAUUACGGCUU | -2.75 ± 0.2 | -3.07 ± 0.32 |
| CAUAAGCAAUAUUACGGUAG | -1.06 ± 0.087 | -0.382 ± 0.089 |
| CAUAAGCAAUAUUACGGUAU | -4.64 ± 0.26 | -2.94 ± 0.21 |
| CAUAAGCAAUAUUACGGUCC | -3.2 ± 0.25 | -2.28 ± 0.31 |
| CAUAAGCAAUAUUACGGUGC | -3.51 ± 0.18 | -3.18 ± 0.24 |
| CAUAAGCAAUAUUACGUAUA | -3.21 ± 0.12 | -2.32 ± 0.13 |
| CAUAAGCAAUAUUACGUCGG | -0.598 ± 0.061 | -0.568 ± 0.087 |
| CAUAAGCAAUAUUACGUGCC | -3.1 ± 0.21 | -2.66 ± 0.38 |
| CAUAAGCAAUAUUACGUGCU | -3.19 ± 0.3 | -1.89 ± 0.27 |
| CAUAAGCAAUAUUACGUUUC | -3.35 ± 0.21 | -2.26 ± 0.2 |
| CAUAAGCAAUAUUACGUUUG | -3.3 ± 0.17 | -2.46 ± 0.18 |
| CAUCAGCAAUAUUACGAAAA | – | -2.89 ± 0.28 |
| CAUCAGCAAUAUUACGACCA | -1.38 ± 0.19 | -1.1 ± 0.19 |
| CAUCAGCAAUAUUACGACCG | -0.142 ± 0.086 | 0.366 ± 0.12 |
| CAUCAGCAAUAUUACGACGG | -0.186 ± 0.085 | -0.0315 ± 0.1 |
| CAUCAGCAAUAUUACGAGCA | -2.05 ± 0.23 | -0.921 ± 0.14 |
| CAUCAGCAAUAUUACGCAAU | -4.01 ± 0.24 | -3.15 ± 0.17 |
| CAUCAGCAAUAUUACGCAUG | -2.03 ± 0.11 | -2.23 ± 0.13 |
| CAUCAGCAAUAUUACGCCUC | – | -1.57 ± 0.24 |
| CAUCAGCAAUAUUACGCGGA | -3.61 ± 0.27 | -2.6 ± 0.29 |
| CAUCAGCAAUAUUACGCGUG | -3.13 ± 0.095 | -2.16 ± 0.092 |
| CAUCAGCAAUAUUACGGACC | -3.04 ± 0.24 | -0.899 ± 0.22 |

| Sequence | self-splicing fitness (ln) (30 °C) | self-splicing fitness (ln) (37 °C) |
| --- | --- | --- |
| CAUCAGCAAUAUUACGGCCA | -2.63 ± 0.28 | -0.947 ± 0.27 |
| CAUCAGCAAUAUUACGGGAA | -2.53 ± 0.21 | -1.68 ± 0.17 |
| CAUCAGCAAUAUUACGUAAG | -0.0494 ± 0.068 | 0.711 ± 0.092 |
| CAUCAGCAAUAUUACGUCGG | -0.265 ± 0.055 | -0.317 ± 0.076 |
| CAUCAGCAAUAUUACGUGAG | -0.345 ± 0.055 | -0.244 ± 0.073 |
| CAUGAGCAAUAUUACGACGG | -0.356 ± 0.12 | -0.199 ± 0.17 |
| CAUGAGCAAUAUUACGAGAU | -4.03 ± 0.23 | -1.82 ± 0.28 |
| CAUGAGCAAUAUUACGAGCU | -2.78 ± 0.23 | – |
| CAUGAGCAAUAUUACGAUAG | -1.55 ± 0.088 | -0.709 ± 0.1 |
| CAUGAGCAAUAUUACGAUCA | -2.99 ± 0.15 | -2.24 ± 0.16 |
| CAUGAGCAAUAUUACGCAAG | -3.15 ± 0.13 | -1.69 ± 0.12 |
| CAUGAGCAAUAUUACGCAGG | -3.17 ± 0.19 | -1.51 ± 0.2 |
| CAUGAGCAAUAUUACGCAUG | -3.01 ± 0.2 | -1.18 ± 0.25 |
| CAUGAGCAAUAUUACGCCCG | -1.56 ± 0.18 | -0.89 ± 0.2 |
| CAUGAGCAAUAUUACGCCUA | -2.28 ± 0.24 | -1.75 ± 0.26 |
| CAUGAGCAAUAUUACGCUGU | -3.14 ± 0.23 | -1.14 ± 0.23 |
| CAUGAGCAAUAUUACGGACG | -0.912 ± 0.087 | -0.391 ± 0.11 |
| CAUGAGCAAUAUUACGGCAA | -2.43 ± 0.17 | -2.02 ± 0.28 |
| CAUGAGCAAUAUUACGGCGA | -3.34 ± 0.31 | -2.53 ± 0.25 |
| CAUGAGCAAUAUUACGGGUG | -3.68 ± 0.19 | -2.43 ± 0.13 |
| CAUGAGCAAUAUUACGUAAC | -3.38 ± 0.35 | -2.61 ± 0.31 |
| CAUGAGCAAUAUUACGUAUC | -3.9 ± 0.32 | -3.15 ± 0.25 |
| CAUGAGCAAUAUUACGUCCA | -2.74 ± 0.33 | -2.28 ± 0.34 |
| CAUGAGCAAUAUUACGUUCU | -3.59 ± 0.27 | -3.11 ± 0.26 |
| CAUGAGCAAUAUUACGUUUC | -2.86 ± 0.34 | – |

| Sequence | self-splicing fitness (ln) (30 °C) | self-splicing fitness (ln) (37 °C) |
| --- | --- | --- |
| CAUUAGCAAUAUUACGAAAG | -0.84 ± 0.12 | -0.567 ± 0.13 |
| CAUUAGCAAUAUUACGAACC | -3.51 ± 0.46 | -1.98 ± 0.34 |
| CAUUAGCAAUAUUACGAAUC | -4.46 ± 0.31 | -2.49 ± 0.18 |
| CAUUAGCAAUAUUACGACCG | 0.0272 ± 0.082 | 0.169 ± 0.1 |
| CAUUAGCAAUAUUACGACGU | -1.47 ± 0.12 | -0.0623 ± 0.14 |
| CAUUAGCAAUAUUACGAUGC | – | -3.61 ± 0.42 |
| CAUUAGCAAUAUUACGCACU | -1.26 ± 0.1 | -0.806 ± 0.13 |
| CAUUAGCAAUAUUACGCCCU | -2.38 ± 0.22 | -1.55 ± 0.24 |
| CAUUAGCAAUAUUACGCCGU | -2.04 ± 0.15 | -1.84 ± 0.21 |
| CAUUAGCAAUAUUACGCGAG | -1.52 ± 0.11 | -0.923 ± 0.095 |
| CAUUAGCAAUAUUACGGCGU | -2.25 ± 0.13 | -0.905 ± 0.13 |
| CAUUAGCAAUAUUACGGCUA | -2.88 ± 0.29 | -1.47 ± 0.15 |
| CAUUAGCAAUAUUACGGUGC | -4.19 ± 0.31 | -2.34 ± 0.3 |
| CAUUAGCAAUAUUACGUACC | -3.96 ± 0.21 | -1.28 ± 0.13 |
| CAUUAGCAAUAUUACGUCUA | -2.74 ± 0.17 | -2.2 ± 0.17 |
| CAUUAGCAAUAUUACGUUGA | -3.86 ± 0.37 | -2.65 ± 0.34 |
| CAUUAGCAAUAUUACGUUUG | -2.16 ± 0.1 | -1.51 ± 0.13 |
| CCAAAGCAAUAUUACGAACG | 0.08 ± 0.054 | -0.168 ± 0.071 |
| CCAAAGCAAUAUUACGAAUG | -1.03 ± 0.07 | -0.166 ± 0.092 |
| CCAAAGCAAUAUUACGAGAG | -2.24 ± 0.23 | -1.91 ± 0.2 |
| CCAAAGCAAUAUUACGAUCC | -3.73 ± 0.31 | – |
| CCAAAGCAAUAUUACGAUGA | -2.55 ± 0.12 | -1.34 ± 0.09 |
| CCAAAGCAAUAUUACGAUUG | -1.36 ± 0.06 | -0.695 ± 0.081 |
| CCAAAGCAAUAUUACGCACU | -2.09 ± 0.19 | -2.75 ± 0.23 |
| CCAAAGCAAUAUUACGCAGG | -3.23 ± 0.15 | -3.74 ± 0.27 |

| Sequence | self-splicing fitness (ln) (30 °C) | self-splicing fitness (ln) (37 °C) |
| --- | --- | --- |
| CCAAAGCAAUAUUACGCAUU | -3.34 ± 0.26 | -3.55 ± 0.46 |
| CCAAAGCAAUAUUACGCGAA | -2.8 ± 0.44 | -2.5 ± 0.28 |
| CCAAAGCAAUAUUACGCUGU | -3.89 ± 0.14 | -2.69 ± 0.15 |
| CCAAAGCAAUAUUACGGACG | -0.4 ± 0.064 | 0.287 ± 0.091 |
| CCAAAGCAAUAUUACGGCUU | -4.45 ± 0.21 | -2.32 ± 0.14 |
| CCAAAGCAAUAUUACGGUUA | -2.46 ± 0.12 | -2.48 ± 0.14 |
| CCAAAGCAAUAUUACGGUUG | -1.18 ± 0.062 | -0.628 ± 0.074 |
| CCAAAGCAAUAUUACGUCCC | -3.62 ± 0.35 | -1.59 ± 0.27 |
| CCAAAGCAAUAUUACGUGCG | -0.979 ± 0.065 | -0.611 ± 0.081 |
| CCACAGCAAUAUUACGACUG | -2.92 ± 0.11 | -0.694 ± 0.092 |
| CCACAGCAAUAUUACGCAAU | -3.41 ± 0.2 | -2.66 ± 0.25 |
| CCACAGCAAUAUUACGCACU | -3.41 ± 0.1 | -2.27 ± 0.12 |
| CCACAGCAAUAUUACGCCGA | -3.67 ± 0.26 | -2.26 ± 0.17 |
| CCACAGCAAUAUUACGCCGU | -2.9 ± 0.24 | -1.87 ± 0.24 |
| CCACAGCAAUAUUACGCGGG | -3.14 ± 0.12 | -2.77 ± 0.16 |
| CCACAGCAAUAUUACGGAAG | -1.87 ± 0.098 | -0.76 ± 0.1 |
| CCACAGCAAUAUUACGGACU | -3.9 ± 0.15 | -2.95 ± 0.14 |
| CCACAGCAAUAUUACGGGGA | -3.12 ± 0.19 | -2.51 ± 0.17 |
| CCACAGCAAUAUUACGGGUA | -3.44 ± 0.21 | -2.88 ± 0.18 |
| CCACAGCAAUAUUACGGUAG | -0.799 ± 0.046 | -0.163 ± 0.065 |
| CCACAGCAAUAUUACGUCCC | -3.18 ± 0.43 | -2.06 ± 0.4 |
| CCACAGCAAUAUUACGUCGA | -2.93 ± 0.11 | -1.47 ± 0.099 |
